Key:
[1] = biological target: T1, MenDRA (MenD-RIAD with one RIAD peptide tag) (E. coli); assay: SEC; 1.5 mg of enzyme fused with RIAD mixed with two-fold molar excess of enzyme fused with RIDD in Tris buffer pH 7.8, 1 mM EDTA, 0.02% Tween-20, no incubation; Superdex 200 10/300 GL, 0.4 mL/min, Tris pH 7.8, 50 mM NaCl; masses from a calibration curve
T1 sequence (P17109 whole entry, looked up): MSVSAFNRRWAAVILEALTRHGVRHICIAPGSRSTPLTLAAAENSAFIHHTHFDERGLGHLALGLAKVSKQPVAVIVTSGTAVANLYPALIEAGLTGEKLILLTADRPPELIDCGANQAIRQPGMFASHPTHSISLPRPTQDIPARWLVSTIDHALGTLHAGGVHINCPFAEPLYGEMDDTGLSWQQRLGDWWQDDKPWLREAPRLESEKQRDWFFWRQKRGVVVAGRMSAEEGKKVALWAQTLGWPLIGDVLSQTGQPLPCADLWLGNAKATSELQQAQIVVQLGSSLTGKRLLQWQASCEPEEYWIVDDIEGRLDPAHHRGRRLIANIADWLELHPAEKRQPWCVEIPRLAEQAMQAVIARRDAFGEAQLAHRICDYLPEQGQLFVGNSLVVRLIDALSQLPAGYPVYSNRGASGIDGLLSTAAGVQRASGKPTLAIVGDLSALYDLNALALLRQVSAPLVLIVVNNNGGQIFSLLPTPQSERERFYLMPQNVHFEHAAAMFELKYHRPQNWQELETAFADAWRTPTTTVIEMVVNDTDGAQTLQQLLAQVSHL

[2] = biological target: T2, MenDRA2 (MenD-RIAD-RIAD with two sequential RIAD peptide tags) (E. coli); assay: as above
T2 sequence (P17109 whole entry, looked up): T1 sequence (P17109 whole entry, looked up)

stoichiometry N (MenH per 4 MenD (per particle)) [1]: 8
stoichiometry N (MenH per 4 MenD (per particle)) [2]: 16
B1: MenHRD (MenH-RIDD with one RIDD peptide tag), P10644 1-44 (enzyme)
chain: MILHAQAKHGKPGLPWLVFLHGFSGDCHEWQEVGEAFADYSRLYVDLPGHGGSAAISVDGFDDVTDLLRKTLVSYNILDFWLVGYSLGGRVAMMAACQGLAGLCGVIVEGGHPGLQNAEQRAERQRSDRQWVQRFLTEPLTAVFADWYQQPVFASLNDDQRRELVALRSNNNGATLAAMLEATSLAVQPDLRANLSARTFAFYYLCGERDSKFRALAAELAADCHVIPRAGHNAHRENPAGVIASLAQILRFGGGGSGGGGSGGGGSSLRECELYVQKHNIQALLKDSIVQLCTARPERPMAFLREYFEKLEKEEAK
modifications: not checked
